Measurements reported in patent US20260242735A1 (UNIVERSIT T BASEL, published 2026).

Tests used:
[1] = molecular target: T1, CD33 variant W22R on base-edited human CD34+ HSPCs (human, UniProt P20138 18-364); assay: flow cytometry sorting and NGS of sgRNA-E base-edited human CD34+ HSPCs
T1 construct: also called sgRNA-E edited CD33

[2] = molecular target: T2, human wild-type CD33 (human, UniProt P20138 18-364); assay: flow cytometry, IgG at 0.25 ug/ml on HEK293-T cells expressing CD33 against vector alone
T2 construct: also called SIGLEC3; P67
T2 sequence (P20138 18-364 limits assumed): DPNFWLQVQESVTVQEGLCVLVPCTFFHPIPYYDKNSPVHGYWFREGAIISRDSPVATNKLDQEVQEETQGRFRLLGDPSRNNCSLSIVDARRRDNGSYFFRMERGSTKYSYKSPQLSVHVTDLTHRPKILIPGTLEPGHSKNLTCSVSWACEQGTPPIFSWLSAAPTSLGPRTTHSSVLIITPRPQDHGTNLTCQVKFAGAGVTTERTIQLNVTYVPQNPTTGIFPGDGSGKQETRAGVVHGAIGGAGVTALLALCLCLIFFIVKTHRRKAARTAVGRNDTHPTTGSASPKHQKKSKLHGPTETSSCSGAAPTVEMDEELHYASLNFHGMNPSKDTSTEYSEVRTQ

[3] = molecular target: CD33 variant F21V (recombinant, biotinylated) (human, UniProt P20138 22-259, biotinylated with EZ-Link Sulfo-NHS-LC-Biotin (sites not given)); assay: BLI (Octet R8), avidity format: biotinylated CD33 on streptavidin sensor, Refmab #4 as analyte at 500 nM;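 also: analyte association recorded over 300 s, followed by a 900 s dissociation phase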
Sequence of CD33 variant F21V (recombinant, biotinylated) (P20138 other isoform, or with tags, fused parts or gaps F21V F21V): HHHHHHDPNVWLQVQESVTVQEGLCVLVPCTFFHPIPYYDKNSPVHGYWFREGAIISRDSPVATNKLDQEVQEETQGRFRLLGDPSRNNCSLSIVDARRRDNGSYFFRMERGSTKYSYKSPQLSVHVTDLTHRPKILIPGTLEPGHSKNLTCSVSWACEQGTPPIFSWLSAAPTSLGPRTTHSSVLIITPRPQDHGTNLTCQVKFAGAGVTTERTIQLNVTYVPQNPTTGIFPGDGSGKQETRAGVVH

[4] = molecular target: CD33 variant F21L (recombinant, biotinylated) (human, UniProt P20138 22-259, biotinylated with EZ-Link Sulfo-NHS-LC-Biotin (sites not given)); assay: as above
[5] = molecular target: CD33 variant F21I (recombinant, biotinylated) (human, UniProt P20138 22-259, biotinylated with EZ-Link Sulfo-NHS-LC-Biotin (sites not given)); assay: as above
[6] = molecular target: CD33 variant F21S (recombinant, biotinylated) (human, UniProt P20138 22-259, biotinylated with EZ-Link Sulfo-NHS-LC-Biotin (sites not given)); assay: as above
[7] = molecular target: CD33 variant F21M (recombinant, biotinylated) (human, UniProt P20138 22-259, biotinylated with EZ-Link Sulfo-NHS-LC-Biotin (sites not given)); assay: as above
Sequence of CD33 variant F21M (recombinant, biotinylated) (P20138 other isoform, or with tags, fused parts or gaps F21M F21M): as the sequence (P20138 other isoform, or with tags, fused parts or gaps F21V F21V) above, with V10M counted along it

[8] = molecular target: CD33 variant F21N (recombinant, biotinylated) (human, UniProt P20138 22-259, biotinylated with EZ-Link Sulfo-NHS-LC-Biotin (sites not given)); assay: as above
Sequence of CD33 variant F21N (recombinant, biotinylated) (P20138 other isoform, or with tags, fused parts or gaps F21N F21N): as the sequence (P20138 other isoform, or with tags, fused parts or gaps F21V F21V) above, with V10N counted along it

[9] = molecular target: CD33 variant F21Q (recombinant, biotinylated) (human, UniProt P20138 22-259, biotinylated with EZ-Link Sulfo-NHS-LC-Biotin (sites not given)); assay: as above
Sequence of CD33 variant F21Q (recombinant, biotinylated) (P20138 other isoform, or with tags, fused parts or gaps F21Q F21Q): as the sequence (P20138 other isoform, or with tags, fused parts or gaps F21V F21V) above, with V10Q counted along it

[10] = molecular target: CD33 variant F21H (recombinant, biotinylated) (human, UniProt P20138 22-259, biotinylated with EZ-Link Sulfo-NHS-LC-Biotin (sites not given)); assay: as above
Sequence of CD33 variant F21H (recombinant, biotinylated) (P20138 other isoform, or with tags, fused parts or gaps F21H F21H): as the sequence (P20138 other isoform, or with tags, fused parts or gaps F21V F21V) above, with V10H counted along it

[11] = molecular target: CD33 variant W22T (recombinant, biotinylated) (human, UniProt P20138 18-259, biotinylated with EZ-Link Sulfo-NHS-LC-Biotin (sites not given)); assay: as above
[12] = molecular target: CD33 variant W22E (recombinant, biotinylated) (human, UniProt P20138 18-259, biotinylated with EZ-Link Sulfo-NHS-LC-Biotin (sites not given)); assay: as above
Sequence of CD33 variant W22E (recombinant, biotinylated) (P20138 other isoform, or with tags, fused parts or gaps W22E W22E): as the sequence (P20138 other isoform, or with tags, fused parts or gaps F21V F21V) above, with V10F, W11E counted along it

[13] = molecular target: CD33 variant W22R (recombinant, biotinylated) (human, UniProt P20138 18-259, biotinylated with EZ-Link Sulfo-NHS-LC-Biotin (sites not given)); assay: as above
Sequence of CD33 variant W22R (recombinant, biotinylated) (P20138 other isoform, or with tags, fused parts or gaps W22R W22R): as the sequence (P20138 other isoform, or with tags, fused parts or gaps F21V F21V) above, with V10F, W11R counted along it

[14] = molecular target: CD33 variant W22D (recombinant, biotinylated) (human, UniProt P20138 18-259, biotinylated with EZ-Link Sulfo-NHS-LC-Biotin (sites not given)); assay: as above
[15] = molecular target: CD33 variant W22K (recombinant, biotinylated) (human, UniProt P20138 18-259, biotinylated with EZ-Link Sulfo-NHS-LC-Biotin (sites not given)); assay: as above
Sequence of CD33 variant W22K (recombinant, biotinylated) (P20138 other isoform, or with tags, fused parts or gaps W22K W22K): as the sequence (P20138 other isoform, or with tags, fused parts or gaps F21V F21V) above, with V10F, W11K counted along it

[16] = molecular target: CD33 variant F44P (recombinant, biotinylated) (human, UniProt P20138 18-259, biotinylated with EZ-Link Sulfo-NHS-LC-Biotin (sites not given)); assay: as above
Sequence of CD33 variant F44P (recombinant, biotinylated) (P20138 other isoform, or with tags, fused parts or gaps F44P F44P): as the sequence (P20138 other isoform, or with tags, fused parts or gaps F21V F21V) above, with V10F, F33P counted along it

[17] = molecular target: CD33 variant Y50D (recombinant, biotinylated) (human, UniProt P20138 18-259, biotinylated with EZ-Link Sulfo-NHS-LC-Biotin (sites not given)); assay: as above
Sequence of CD33 variant Y50D (recombinant, biotinylated) (P20138 other isoform, or with tags, fused parts or gaps Y50D Y50D): as the sequence (P20138 other isoform, or with tags, fused parts or gaps F21V F21V) above, with V10F, Y39D counted along it

[18] = molecular target: CD33 variant Y50R (recombinant, biotinylated) (human, UniProt P20138 18-259, biotinylated with EZ-Link Sulfo-NHS-LC-Biotin (sites not given)); assay: as above
Sequence of CD33 variant Y50R (recombinant, biotinylated) (P20138 other isoform, or with tags, fused parts or gaps Y50R Y50R): as the sequence (P20138 other isoform, or with tags, fused parts or gaps F21V F21V) above, with V10F, Y39R counted along it

[19] = molecular target: CD33 variant Y50K (recombinant, biotinylated) (human, UniProt P20138 18-259, biotinylated with EZ-Link Sulfo-NHS-LC-Biotin (sites not given)); assay: as above
[20] = molecular target: CD33 double variant Y50H_H49H (recombinant, biotinylated) (human, UniProt P20138 18-259, biotinylated with EZ-Link Sulfo-NHS-LC-Biotin (sites not given)); assay: as above
Sequence of CD33 double variant Y50H_H49H (recombinant, biotinylated) (P20138 other isoform, or with tags, fused parts or gaps Y50H H49H Y50H H49H): as the sequence (P20138 other isoform, or with tags, fused parts or gaps F21V F21V) above, with V10F, Y38H, Y39H counted along it

[21] = molecular target: T3, CD33 wild type (recombinant, biotinylated) (human, UniProt P20138 18-259, biotinylated with EZ-Link Sulfo-NHS-LC-Biotin (sites not given)); assay: as above
T3 construct: also called WT; CD33 wt
T3 sequence (P20138 other isoform, or with tags, fused parts or gaps): as the sequence (P20138 other isoform, or with tags, fused parts or gaps F21V F21V) above, with V10F counted along it

[22] = molecular target: CD33 variant N20G (recombinant, biotinylated) (human, UniProt P20138 21-259, biotinylated with EZ-Link Sulfo-NHS-LC-Biotin (sites not given)); assay: as above
[23] = molecular target: CD33 variant N20E (recombinant, biotinylated) (human, UniProt P20138 21-259, biotinylated with EZ-Link Sulfo-NHS-LC-Biotin (sites not given)); assay: as above
Sequence of CD33 variant N20E (recombinant, biotinylated) (P20138 other isoform, or with tags, fused parts or gaps N20E N20E): as the sequence (P20138 other isoform, or with tags, fused parts or gaps F21V F21V) above, with N9E, V10F counted along it

[24] = molecular target: CD33 variant N20K (recombinant, biotinylated) (human, UniProt P20138 21-259, biotinylated with EZ-Link Sulfo-NHS-LC-Biotin (sites not given)); assay: as above
Sequence of CD33 variant N20K (recombinant, biotinylated) (P20138 other isoform, or with tags, fused parts or gaps N20K N20K): as the sequence (P20138 other isoform, or with tags, fused parts or gaps F21V F21V) above, with N9K, V10F counted along it

[25] = molecular target: CD33 variant N20V (recombinant, biotinylated) (human, UniProt P20138 21-259, biotinylated with EZ-Link Sulfo-NHS-LC-Biotin (sites not given)); assay: as above
Sequence of CD33 variant N20V (recombinant, biotinylated) (P20138 other isoform, or with tags, fused parts or gaps N20V N20V): as the sequence (P20138 other isoform, or with tags, fused parts or gaps F21V F21V) above, with N9V, V10F counted along it

[26] = molecular target: CD33 variant N20H (recombinant, biotinylated) (human, UniProt P20138 21-259, biotinylated with EZ-Link Sulfo-NHS-LC-Biotin (sites not given)); assay: as above

T1 sequence (P20138 18-364 W22R limits assumed): as the sequence (P20138 18-364 limits assumed) above, with W5R counted along it

B1: Refmab #3 (antibody, V domains shown)
VH: QVQLVQSGAEVKKPGSSVKVSCKASGYTFTDYNMHWVRQAPGQGLEWIGYIYPYNGGTGYNQKFKSKATITADESTNTAYMELSSLRSEDTAVYYCARGRPAMDYWGQGTLVTVSS
VL: DIQMTQSPSSLSASVGDRVTITCRASESVDNYGISFMNWFQQKPGKAPKLLIYAASNQGSGVPSRFSGSGSGTDFTLTISSLQPDDFATYYCQQSKEVPWTFGQGTKVEIK
notes: Full-length MAb format, human IgG1 Fc silent (PG-LALA)
binding result [1]: no binding
Signal:Background [2]: 35 signal:background ratio

B2: Refmab #4 (antibody, human IgG1, V domains shown)
VH: QVQLVQSGAEVKKPGESVKVSCKASGYTFTNYGMNWVKQAPGQGLEWMGWINTYTGEPTYADKFQGRVTMTTDTSTSTAYMEIRNLGGDDTAVYYCARWSWSDGYYVYFDYWGQGTSVTVSS
VL: DIVMTQSPDSLTVSLGERTTINCKSSQSVLDSSTNKNSLAWYQQKPGQPPKLLLSWASTRESGIPDRFSGSGSGTDFTLTIDSPQPEDSATYYCQQSAHFPITFGQGTRLEIK
% WT binding [3]: 96 % WT binding
% WT binding [4]: 88.3 % WT binding
% WT binding [5]: 91 % WT binding
% WT binding [6]: 106 % WT binding
% WT binding [7]: 122 % WT binding
% WT binding [8]: 108 % WT binding
% WT binding [9]: 122 % WT binding
% WT binding [10]: 103 % WT binding
% WT binding [11]: 100 % WT binding
% WT binding [12]: 136 % WT binding
% WT binding [13]: 87.2 % WT binding
% WT binding [14]: 129 % WT binding
% WT binding [15]: 99.3 % WT binding
% WT binding [16]: 73.9 % WT binding
% WT binding [17]: 0 % WT binding
% WT binding [18]: 0 % WT binding
% WT binding [19]: 0 % WT binding
% WT binding [20]: 0 % WT binding
% WT binding [21]: 100 % WT binding
% WT binding [22]: 89 % WT binding
% WT binding [23]: 111 % WT binding
% WT binding [24]: 79.4 % WT binding
% WT binding [25]: 99.5 % WT binding
% WT binding [26]: 87.7 % WT binding
